This is an account of results in PMC4912634 (2016).

Substitutions are numbered along the chain they refer to. In names and notes the source's numbering stands.

For assay [1], the target named is DARPin-tubulin complex (used in ITC) ( (porcine or bovine brain), UniProt Q6B856 1-445). Nature of the assay: ITC. On the technique in general: In ITC the heat of successive injections is recorded.
The target of assay [2] is tubulin heterodimer (porcine/bovine brain tubulin) ( (porcine or bovine brain), UniProt Q6B856 1-445). Nature of the assay: ITC.
Chain of tubulin heterodimer (porcine/bovine brain tubulin) (chain, as listed by the source, chain 1 of 2): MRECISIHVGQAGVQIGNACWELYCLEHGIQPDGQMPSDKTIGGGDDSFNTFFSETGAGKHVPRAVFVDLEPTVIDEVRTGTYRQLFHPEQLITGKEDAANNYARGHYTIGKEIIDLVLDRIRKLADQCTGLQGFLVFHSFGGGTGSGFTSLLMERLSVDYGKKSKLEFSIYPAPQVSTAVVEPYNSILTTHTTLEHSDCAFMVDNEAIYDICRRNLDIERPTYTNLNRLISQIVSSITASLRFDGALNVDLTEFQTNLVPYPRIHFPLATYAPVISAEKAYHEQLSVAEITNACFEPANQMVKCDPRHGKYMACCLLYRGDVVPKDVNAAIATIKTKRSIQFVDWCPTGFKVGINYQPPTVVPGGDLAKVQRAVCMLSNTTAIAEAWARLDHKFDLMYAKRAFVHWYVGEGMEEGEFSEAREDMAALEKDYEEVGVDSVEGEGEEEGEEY
Chain of tubulin heterodimer (porcine/bovine brain tubulin) (Q6B856 whole entry, chain 2 of 2): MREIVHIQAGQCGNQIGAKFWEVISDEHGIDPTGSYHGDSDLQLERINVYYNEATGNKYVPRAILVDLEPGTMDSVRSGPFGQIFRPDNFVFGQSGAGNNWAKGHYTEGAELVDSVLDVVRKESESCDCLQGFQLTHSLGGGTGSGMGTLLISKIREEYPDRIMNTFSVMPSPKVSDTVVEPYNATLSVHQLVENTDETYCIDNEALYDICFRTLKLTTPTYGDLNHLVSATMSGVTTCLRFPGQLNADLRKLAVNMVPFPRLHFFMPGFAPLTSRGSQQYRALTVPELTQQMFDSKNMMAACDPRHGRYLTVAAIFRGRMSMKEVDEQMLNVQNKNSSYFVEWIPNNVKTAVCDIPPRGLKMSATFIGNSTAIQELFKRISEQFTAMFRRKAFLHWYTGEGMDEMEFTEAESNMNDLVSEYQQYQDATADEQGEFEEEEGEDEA

Chain of DARPin-tubulin complex (used in ITC) (chain, as listed by the source, chain 1 of 3): as the sequence (chain, as listed by the source, chain 1 of 2) above
Chain of DARPin-tubulin complex (used in ITC) (Q6B856 whole entry, chain 2 of 3): as the sequence (Q6B856 whole entry, chain 2 of 2) above
Chain of DARPin-tubulin complex (used in ITC) (chain, as listed by the source, chain 3 of 3): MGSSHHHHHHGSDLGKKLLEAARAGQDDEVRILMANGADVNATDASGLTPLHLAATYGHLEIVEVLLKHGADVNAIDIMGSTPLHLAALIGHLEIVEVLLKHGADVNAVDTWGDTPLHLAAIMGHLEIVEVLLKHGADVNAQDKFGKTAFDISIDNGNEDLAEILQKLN

On to KQPFLKRGEGLARFTNAKSKFQK [PN2-3C peptide (PN2-3's C-terminus, aa 372-394 of CPAP)], for which the Kd in assay [1] amounted to 3400 nM.

B1: Y341A (protein)
chain: VANIEERPIKAAIGERKQTFEDALEEQIQLEEQELKQKQLKEAEGPLPIKAKPKQPFLKRGEGLARFTNAKSKFQK
Regarding B1, in assay [2], binding was characterised by a dissociation constant (Kd) of 136 nM.

B2: R384E (protein)
chain: B1 chain with A23Y, R66E
In assay [2], B2 registered a Kd of 1900 nM.

B3: K372E (protein)
chain: B1 chain with A23Y, K54E
The molecule B3 gave a Kd in assay [2] of 400 nM.

B4: ED339RR (protein)
chain: B1 chain with E21R, D22R, A23Y
B4 returned a dissociation constant (Kd) in assay [2] of 143 nM.

B5: F338A (protein)
chain: B1 chain with F20A, A23Y
Consider B5, for which the dissociation constant (Kd) in assay [2] came out at 116 nM.

B6: K377E (protein)
chain: B1 chain with A23Y, K59E
As to B6, the Kd in assay [2] came out at 1300 nM.

B7: R378E (protein)
chain: B1 chain with A23Y, R60E
In assay [2], B7 came in with a Kd of 800 nM.

B8: F385A (protein)
chain: B1 chain with A23Y, F67A
As to B8, in assay [2], the Kd stood at 100 nM.

B9: EE349RR (protein)
chain: B1 chain with A23Y, E31R, E32R
For the molecule B9, the affinity in assay [2], expressed as Kd, was 256 nM.

The term Kd denotes a measure of binding affinity in units of concentration. The low end stands for tighter binding, the high end for weaker binding.
